Data published in the supplement of paper PMC10567573.
± gives the standard deviation.

Experiment: protein stability index of a GFP-peptide fusion (GPS, HEK-293T) (PSI 1-6); higher = more stable
Settings: c terminus: a fixed tail appended
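Further: 24-mer peptide tiles fused after GFP, lentivirally expressed, FACS-sorted into six equal bins by GFP/DsRed ratio, decoded by Illumina sequencing, PSI is the read-weighted mean bin number.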

Row | Sequence | protein stability index (treatment: DMSO) | protein stability index (treatment: MLN4924 1 uM, 8 h)
1 | VLLEEPLPLETARESPSFKLEPME [ZNF263] | 4.02 ± 0.24 | 4.284 ± 0.038
2 | PHWLDKWMLTRKQFGLLSFFFAVL [STEAP1] | 2.27 ± 0.28 | 2.26 ± 0.38
3 | GFAMYYFTYDPWIGKLLYLEDFFV [SAT1] | 3.16 ± 0.17 | 3.03 ± 0.34
4 | SVSNSTQTSSSSSQSETSSAVSTP [DLC1] | 5.5 ± 0.1 | 5.43 ± 0.23
5 | MQLPPALCARLAAGPGAAEPLPVE [ZNF511] | 3.97 ± 0.18 | 3.86 ± 0.11
6 | DYVDRGYYSVETVTLLVALKVRYR [PPP2CA] | 2.74 ± 0.46 | 2.47 ± 0.6
7 | ERKPAATARLSRRGTSLSPPPESS [KISS1] | 5.16 ± 0.17 | 5.26 ± 0.17
8 | ADYSAALDPAYTTLEFENVQVLTM [HNF4A] | 2.75 ± 0.25 | 2.39 ± 0.32
9 | ISSGLRGCMLIELALRGRLQLEAC [GOLPH3] | 3.22 ± 0.62 | 2.67 ± 0.21
10 | LWPFAWLQVAGLSEEQLQEPITGW [LPCAT4] | 2.38 ± 0.18 | 2.5 ± 0.34
11 | MYPESTTGSPARLSLRQTGSPGMI [KCNAB2] | 3.7 ± 0.51 | 4.1 ± 0.4
12 | ECVVAMHQAQLISKIPHILKEMYD [EIF5] | 2.78 ± 0.38 | 2.32 ± 0.5
13 | AADGETTATEELEKTQDDLMKHQT [EPB41L3] | 5.62 ± 0.14 | 5.64 ± 0.14
14 | YTSQITVEEGNVQTLLPAACLLQL [KLHL20] | 2.28 ± 0.061 | 2.3 ± 0.25
15 | LEKDFSIYGGELGPMMKLKRHFVA [ACSBG2] | 2.23 ± 0.2 | 2.26 ± 0.53
16 | VYIFATCLGLSYDGLLGDNQIMPK [MAGEA6] | 2.82 ± 0.52 | 2.44 ± 0.44
17 | SSPQGVQLDIASQSLDQEILLKVK [BCL2L13] | 3.58 ± 0.4 | 3.83 ± 0.1
18 | IGPNVLMVHKRSHTGERPFQCNQC [IKZF1] | 2.93 ± 0.26 | 3.17 ± 0.43
19 | RSPDASPSRAPPSTQEPQSPREGE [GNAS] | 5.36 ± 0.12 | 5.42 ± 0.078
20 | PNVLCSMSGKSPVESSLNVKTKKN [FBXO34] | 4.84 ± 0.29 | 4.9 ± 0.1
21 | DFSSGGAAAAAAPAPPPPAGGATA [SNAP91] | 5.39 ± 0.3 | 5.37 ± 0.15
22 | YLYFLFCPTLIYRETYPRTPYVRW [SOAT2] | 2.67 ± 0.76 | 2.58 ± 0.29
23 | AAEERALFTDRMATRSTTQSNRTS [WEE1] | 5.1 ± 0.2 | 5.17 ± 0.21

Row | Sequence | protein stability index (treatment: DMSO) | protein stability index (treatment: MLN4924 1 uM, 8 h)
24 | SESQLASTESDKPTTGRVYESDSS [C18orf25] | 5.5 ± 0.15 | 5.44 ± 0.26
25 | HLDIWKSAAWMKERTSPGAIHYCA [SPDEF] | 2.21 ± 0.39 | 2.4 ± 0.32
26 | VDHQGVSWYHWKGFEFSVPFTEMK [TNXB] | 2.45 ± 0.55 | 2.49 ± 0.74
27 | KKKVGNYYTTPIYRFRMKCHLCVN [YJU2B] | 2.21 ± 0.33 | 2.19 ± 0.3
28 | SRRVIAANNRILAERIAKEIQVIP [IMPA1] | 2.46 ± 0.34 | 2.69 ± 0.12
29 | PPLWAASAAGHLKVVQSLLNHGAS [FEM1C] | 2.58 ± 0.43 | 2.76 ± 0.23
30 | GTPADTGDLSPGHGASAPSVSREA [PWWP2B] | 5.29 ± 0.18 | 5.56 ± 0.22
31 | SCDDLMGGGGLHSVGTYIIDLLTF [GFOD1] | 2.75 ± 0.72 | 2.41 ± 0.29
32 | PRLSQLSVTDVTTSSLRLNWEAPP [TNXB] | 3.5 ± 0.4 | 
33 | LHKFPYRMVPALPPKRMLGADREF [SNX8] | 2.55 ± 0.15 | 2.67 ± 0.32
34 | NYRIMSYFKEAELKDLLLQVGRGL [WEE1] | 2.46 ± 0.87 | 2.15 ± 0.4
35 | MTEKQQEEAEWESINVLLMMHGLK [CEP70] | 2.62 ± 0.27 | 2.73 ± 0.22
36 | RSGSPTVPIKPPCIPNGKENFSGG [CAMK2D] | 4.2 ± 0.2 | 4.32 ± 0.21
37 | YKLVGSPPWKEAFRQRCLERMRNS [RPAIN] | 2.74 ± 0.32 | 2.98 ± 0.52
38 | NQQIHEQEKKILELEKLAEKNIIL [MTUS2] | 4.13 ± 0.18 | 4.25 ± 0.17
39 | RDYPSSRDTRDYAPPPRDYTYRDY [RBMX] | 2.87 ± 0.38 | 3.08 ± 0.35
40 | ENEETGEFSIDNYPTDNTKVMIFK [MIA2] |  | 4.217 ± 0.033
41 | RLGPLSAEGTTGLAPAGQTSEESR [TNXB] | 5.3 ± 0.36 | 5.41 ± 0.2
42 | KDQRNPPSLGRVLPDPREACGSSS [RBMY1A1] | 4.78 ± 0.17 | 5.18 ± 0.095
43 | RKKQHICDECGKHFSQGSALILHQ [ZNF24] | 3.53 ± 0.21 | 3.62 ± 0.41
44 | MEKYEKLAKTGEGSYGVVFKCRNK [CDKL4] | 3.78 ± 0.19 | 3.67 ± 0.26
45 | RFHYDRNPGTDAVAQTSLEEFNVL [FATE1] | 3.74 ± 0.24 | 3.78 ± 0.11
